Measurements published in patent publication US20220235103A1 (Molecular Partners, published 2022).

B1: vS07_23E04 (designed binder)
chain: MRGSHHHHHHGSDLGKKLLQAARAGQLDEVRELLKAGADVNAKDQEGITPLHVAAHQGHLEIVEVLLKAGADVNAKDVWGRTPLHLAAWRGHLEIVEVLLKAGADVNAKDHAGATPLHAAALSGHLEIVEVLLKAGADVNAQDKSGKTPADLAARAGHQDIAEVLQKAA
notes: also called R3c
B2: vS07_29B10 (designed binder)
chain: MRGSHHHHHHGSDLGKKLLQAARAGQLDEVRELLKAGADVNAKDREGITPLHLAAQHGHLEIVEVLLKAGADVNAKDVWGRTPLHLAAWQGHLEIVEVLLKAGADVNAKDLAGATPLHVAALYGHLEIVEVLLKAGADVNAQDKSGKTPADLAARAGHQDIAEVLQKAA
notes: also called R3b
B3: vS07_12C06 (designed binder)
chain: MRGSHHHHHHGSDLGKKLLQAARAGQLDEVRELLKAGADVNAKDREGKTPLHVAAQEGHLEIVEVLLKAGADVNAKDVWGRTPLHLAAWIGHLEIVEVLLKAGADVNAKDVSGATPLHAAALHGHLEIVEVLLNAGADVNAQDKSGKTPADLAARAGHQDIAEVLQKAA
notes: also called R1b; Rb1

Experiments:
Assay in all cases: cell-based or functional assay
[1] = target: SARS-CoV-2 spike protein G476S (SARS-CoV-2, UniProt P0DTC2 14-1273)
[2] = target: SARS-CoV-2 spike protein G446V (SARS-CoV-2, UniProt P0DTC2 14-1273)
[3] = target: SARS-CoV-2 spike protein A222V (SARS-CoV-2, UniProt P0DTC2 14-1273)

Binder | VSV Pseudotype Neutralization Assay IC50 [1] [ng/mL] | VSV Pseudotype Neutralization Assay IC50 [2] [ng/mL] | VSV Pseudotype Neutralization Assay IC50 [3] [ng/mL]
B1 | 29 | 2.3 | 19.5
B2 | 2.3 | 0.7 | 3.3
B3 | 3.7 | 1.8 | 4.6
